Test results published in article PMC9482650, “Quantitative fragmentomics allow affinity mapping of interactomes” (Nature Communications, 2022).

What was measured:
Assay in all cases: holdup assay
Design in all cases: key: below the threshold = too weak to quantify, mostly under pKd 3.1 to 4
Conditions in all cases: plain residues with an end cap or a label only (N-terminal biotin on a linker: ado-ado)
MAGI2_5, Q86UL8 = molecular target: MAGI2_5, Q86UL8
LNX2_2, Q8N448 = molecular target: T1, LNX2_2, Q8N448
T1 sequence (Q8N448 334-432, limits assumed, looked up): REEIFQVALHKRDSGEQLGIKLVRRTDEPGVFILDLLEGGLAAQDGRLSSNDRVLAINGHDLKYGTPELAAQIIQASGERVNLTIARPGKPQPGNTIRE

HTRA3, P83110 = molecular target: T2, HTRA3, P83110
T2 sequence (P83110 354-453, limits assumed, looked up): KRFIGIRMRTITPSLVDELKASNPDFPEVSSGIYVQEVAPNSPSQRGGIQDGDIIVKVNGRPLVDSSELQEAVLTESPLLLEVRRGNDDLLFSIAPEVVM

GRIP1_2, Q9Y3R0 = molecular target: T3, GRIP1_2, Q9Y3R0
T3 sequence (Q9Y3R0 145-248, limits assumed, looked up): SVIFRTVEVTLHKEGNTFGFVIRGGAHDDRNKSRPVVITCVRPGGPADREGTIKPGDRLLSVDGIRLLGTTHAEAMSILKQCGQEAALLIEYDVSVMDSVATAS

MPDZ_12, O75970 = molecular target: T4, MPDZ_12, O75970
T4 sequence (O75970 1857-1958, limits assumed, looked up): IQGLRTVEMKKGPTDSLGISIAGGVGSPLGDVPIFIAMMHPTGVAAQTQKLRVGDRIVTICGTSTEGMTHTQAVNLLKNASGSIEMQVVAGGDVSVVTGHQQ

TJP2_1, Q9UDY2 = molecular target: TJP2_1, Q9UDY2
MAGI2_6, Q86UL8 = molecular target: MAGI2_6, Q86UL8
MAGI1_1, Q96QZ7 = molecular target: MAGI1_1, Q96QZ7
DVL3, Q92997 = molecular target: T5, DVL3, Q92997
T5 sequence (Q92997 244-331, limits assumed, looked up): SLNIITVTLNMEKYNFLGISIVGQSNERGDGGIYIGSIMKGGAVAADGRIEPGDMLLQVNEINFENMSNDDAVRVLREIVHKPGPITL

GRIP2_3, Q9C0E4 = molecular target: GRIP2_3, Q9C0E4
NHERF4_4, Q86UT5 = molecular target: NHERF4_4, Q86UT5
DFNB31_1, Q9P202 = molecular target: T6, DFNB31_1, Q9P202
T6 sequence (Q9P202 135-233, limits assumed, looked up): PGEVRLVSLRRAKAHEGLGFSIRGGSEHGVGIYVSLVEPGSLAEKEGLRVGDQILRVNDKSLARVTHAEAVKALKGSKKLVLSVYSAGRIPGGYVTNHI

GRIP2_6, Q9C0E4 = molecular target: GRIP2_6, Q9C0E4
LAP2, Q96RT1 = molecular target: LAP2, Q96RT1
Inadl_4, Q8NI35 = molecular target: Inadl_4, Q8NI35
CARD11, Q9BXL7 = molecular target: T7, CARD11, Q9BXL7
T7 sequence (Q9BXL7 662-765, limits assumed, looked up): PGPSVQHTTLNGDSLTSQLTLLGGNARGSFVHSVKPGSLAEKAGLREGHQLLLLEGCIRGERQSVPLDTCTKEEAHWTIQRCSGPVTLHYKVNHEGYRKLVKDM

SCRIB_3, Q14160 = molecular target: SCRIB_3, Q14160
PDZD7_3, Q9H5P4 = molecular target: T8, PDZD7_3, Q9H5P4
T8 sequence (Q9H5P4 857-944, limits assumed, looked up): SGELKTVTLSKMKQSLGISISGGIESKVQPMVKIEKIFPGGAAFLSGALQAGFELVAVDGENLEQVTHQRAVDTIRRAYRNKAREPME

GRIP2_7, Q9C0E4 = molecular target: GRIP2_7, Q9C0E4
LIN7A, O14910 = molecular target: T9, LIN7A, O14910
T9 sequence (O14910 103-200, limits assumed, looked up): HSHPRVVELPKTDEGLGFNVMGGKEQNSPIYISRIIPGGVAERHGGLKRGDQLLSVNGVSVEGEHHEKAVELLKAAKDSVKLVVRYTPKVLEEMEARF

APBA3_1, O96018 = molecular target: T10, APBA3_1, O96018
T10 sequence (O96018 389-490, limits assumed, looked up): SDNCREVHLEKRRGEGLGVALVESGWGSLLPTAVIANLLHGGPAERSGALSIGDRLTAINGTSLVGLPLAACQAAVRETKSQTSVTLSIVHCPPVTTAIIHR

Inadl_1, Q8NI35 = molecular target: Inadl_1, Q8NI35
PDZRN3_1, Q9UPQ7 = molecular target: T11, PDZRN3_1, Q9UPQ7
T11 sequence (Q9UPQ7 244-349, limits assumed, looked up): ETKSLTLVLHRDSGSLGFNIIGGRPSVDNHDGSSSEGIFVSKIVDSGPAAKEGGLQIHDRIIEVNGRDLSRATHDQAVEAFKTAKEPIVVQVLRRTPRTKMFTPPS

GORASP1, Q9BQQ3 = molecular target: GORASP1, Q9BQQ3
DLG2_2, Q15700 = molecular target: DLG2_2, Q15700
GORASP2, Q9H8Y8 = molecular target: GORASP2, Q9H8Y8
Inadl_9, Q8NI35 = molecular target: Inadl_9, Q8NI35
Inadl_9, Q8NI35, sequence (Q8NI35 1530-1615): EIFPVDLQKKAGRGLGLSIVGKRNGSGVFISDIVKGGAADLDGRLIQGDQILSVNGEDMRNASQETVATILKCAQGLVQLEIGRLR

Inadl_1, Q8NI35, sequence (Q8NI35 113-229): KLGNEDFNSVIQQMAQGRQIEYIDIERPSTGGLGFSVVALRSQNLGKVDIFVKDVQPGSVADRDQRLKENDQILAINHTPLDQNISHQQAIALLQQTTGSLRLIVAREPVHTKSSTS
MAGI2_5, Q86UL8, sequence (Q86UL8 915-1017): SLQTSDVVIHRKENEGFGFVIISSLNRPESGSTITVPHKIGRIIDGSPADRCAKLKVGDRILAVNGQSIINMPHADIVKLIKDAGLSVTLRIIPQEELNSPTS
TJP2_1, Q9UDY2, sequence (Q9UDY2 24-128): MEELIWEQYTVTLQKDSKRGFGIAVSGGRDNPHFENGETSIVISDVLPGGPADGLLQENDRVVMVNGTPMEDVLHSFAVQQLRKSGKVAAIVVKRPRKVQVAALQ
GRIP2_6, Q9C0E4, sequence (Q9C0E4 648-740): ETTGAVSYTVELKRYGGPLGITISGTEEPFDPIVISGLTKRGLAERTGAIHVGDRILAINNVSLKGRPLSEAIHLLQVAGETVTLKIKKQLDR
LAP2, Q96RT1, sequence (Q96RT1 other isoform, or with tags, fused parts or gaps): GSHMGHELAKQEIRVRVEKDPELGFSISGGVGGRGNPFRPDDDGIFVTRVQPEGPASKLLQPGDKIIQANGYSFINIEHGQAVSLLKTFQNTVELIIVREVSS
Inadl_4, Q8NI35, sequence (Q8NI35 547-651): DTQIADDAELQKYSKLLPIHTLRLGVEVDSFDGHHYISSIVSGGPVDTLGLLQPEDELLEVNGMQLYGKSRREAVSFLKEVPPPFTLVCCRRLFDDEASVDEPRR
GRIP2_3, Q9C0E4, sequence (Q9C0E4 238-339): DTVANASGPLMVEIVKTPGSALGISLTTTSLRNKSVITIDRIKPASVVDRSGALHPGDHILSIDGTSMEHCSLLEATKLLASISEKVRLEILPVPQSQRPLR
GRIP2_7, Q9C0E4, sequence (Q9C0E4 934-1023): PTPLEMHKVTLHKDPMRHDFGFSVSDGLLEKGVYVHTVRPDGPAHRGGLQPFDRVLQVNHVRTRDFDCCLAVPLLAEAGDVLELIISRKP
DLG2_2, Q15700, sequence (Q15700 189-283): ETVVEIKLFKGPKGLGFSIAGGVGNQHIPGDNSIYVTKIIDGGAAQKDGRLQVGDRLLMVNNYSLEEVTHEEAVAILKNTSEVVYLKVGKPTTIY
NHERF4_4, Q86UT5, sequence (Q86UT5 464-550): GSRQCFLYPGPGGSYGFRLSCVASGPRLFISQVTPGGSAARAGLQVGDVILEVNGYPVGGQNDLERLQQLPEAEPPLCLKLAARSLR
MAGI1_1, Q96QZ7, sequence (Q96QZ7 1-106): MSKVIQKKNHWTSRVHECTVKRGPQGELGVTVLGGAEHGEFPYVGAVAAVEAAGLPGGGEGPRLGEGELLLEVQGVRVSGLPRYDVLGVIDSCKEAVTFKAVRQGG
SCRIB_3, Q14160, sequence (Q14160 999-1103): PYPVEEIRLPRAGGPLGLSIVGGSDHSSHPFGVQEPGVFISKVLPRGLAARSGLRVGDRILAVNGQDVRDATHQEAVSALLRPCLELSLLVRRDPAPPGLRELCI
GORASP1, Q9BQQ3, sequence (Q9BQQ3 1-208): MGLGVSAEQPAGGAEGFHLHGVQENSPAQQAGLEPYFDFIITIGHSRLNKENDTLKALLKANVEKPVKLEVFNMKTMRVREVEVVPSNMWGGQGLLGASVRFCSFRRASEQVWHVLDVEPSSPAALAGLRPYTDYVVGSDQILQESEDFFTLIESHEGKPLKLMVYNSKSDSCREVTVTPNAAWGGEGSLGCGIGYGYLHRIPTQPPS
MAGI2_6, Q86UL8, sequence (Q86UL8 1141-1229): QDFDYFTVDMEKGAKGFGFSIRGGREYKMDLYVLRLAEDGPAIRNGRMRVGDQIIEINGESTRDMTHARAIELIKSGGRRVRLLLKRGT

QLAEIAESGL [ITK, Q08881]
pKd (MAGI2_5, Q86UL8): below the threshold
pKd (LNX2_2, Q8N448): below the threshold
pKd (HTRA3, P83110): below the threshold
pKd (GRIP1_2, Q9Y3R0): below the threshold
pKd (MPDZ_12, O75970): 3.53
pKd (TJP2_1, Q9UDY2): below the threshold
pKd (MAGI2_6, Q86UL8): 3.68
pKd (MAGI1_1, Q96QZ7): 3.62
pKd (DVL3, Q92997): below the threshold
pKd (GRIP2_3, Q9C0E4): 3.53
pKd (NHERF4_4, Q86UT5): below the threshold
pKd (DFNB31_1, Q9P202): 3.97
pKd (GRIP2_6, Q9C0E4): 3.48
pKd (LAP2, Q96RT1): below the threshold
pKd (Inadl_4, Q8NI35): below the threshold
pKd (CARD11, Q9BXL7): below the threshold
pKd (SCRIB_3, Q14160): 4.16
pKd (PDZD7_3, Q9H5P4): below the threshold
pKd (GRIP2_7, Q9C0E4): 3.47
pKd (LIN7A, O14910): 3.65
pKd (APBA3_1, O96018): below the threshold
pKd (Inadl_1, Q8NI35): below the threshold
pKd (PDZRN3_1, Q9UPQ7): 3.89
pKd (GORASP1, Q9BQQ3): 3.53
pKd (DLG2_2, Q15700): 3.57
pKd (GORASP2, Q9H8Y8): below the threshold
pKd (Inadl_9, Q8NI35): below the threshold

EGGKKRESEA [APPL1, Q9UKG1]
pKd (MAGI2_5, Q86UL8): below the threshold
pKd (LNX2_2, Q8N448): below the threshold
pKd (HTRA3, P83110): below the threshold
pKd (GRIP1_2, Q9Y3R0): below the threshold
pKd (MPDZ_12, O75970): 3.54
pKd (TJP2_1, Q9UDY2): below the threshold
pKd (MAGI2_6, Q86UL8): below the threshold
pKd (MAGI1_1, Q96QZ7): below the threshold
pKd (DVL3, Q92997): below the threshold
pKd (GRIP2_3, Q9C0E4): below the threshold
pKd (NHERF4_4, Q86UT5): below the threshold
pKd (DFNB31_1, Q9P202): 3.63
pKd (GRIP2_6, Q9C0E4): below the threshold
pKd (LAP2, Q96RT1): 3.59
pKd (Inadl_4, Q8NI35): below the threshold
pKd (CARD11, Q9BXL7): below the threshold
pKd (SCRIB_3, Q14160): 3.82
pKd (PDZD7_3, Q9H5P4): 3.69
pKd (GRIP2_7, Q9C0E4): below the threshold
pKd (LIN7A, O14910): below the threshold
pKd (APBA3_1, O96018): below the threshold
pKd (Inadl_1, Q8NI35): below the threshold
pKd (PDZRN3_1, Q9UPQ7): below the threshold
pKd (GORASP1, Q9BQQ3): below the threshold
pKd (DLG2_2, Q15700): below the threshold
pKd (GORASP2, Q9H8Y8): below the threshold
pKd (Inadl_9, Q8NI35): below the threshold

GSSSKEGTSV [RRBP1, Q9P2E9]
pKd (MAGI2_5, Q86UL8): below the threshold
pKd (LNX2_2, Q8N448): 4.15
pKd (HTRA3, P83110): below the threshold
pKd (GRIP1_2, Q9Y3R0): below the threshold
pKd (MPDZ_12, O75970): below the threshold
pKd (TJP2_1, Q9UDY2): below the threshold
pKd (MAGI2_6, Q86UL8): 4.02
pKd (MAGI1_1, Q96QZ7): below the threshold
pKd (DVL3, Q92997): below the threshold
pKd (GRIP2_3, Q9C0E4): below the threshold
pKd (NHERF4_4, Q86UT5): 3.98
pKd (DFNB31_1, Q9P202): 3.8
pKd (GRIP2_6, Q9C0E4): below the threshold
pKd (LAP2, Q96RT1): 3.65
pKd (Inadl_4, Q8NI35): below the threshold
pKd (CARD11, Q9BXL7): below the threshold
pKd (SCRIB_3, Q14160): 4.23
pKd (PDZD7_3, Q9H5P4): 4.28
pKd (GRIP2_7, Q9C0E4): below the threshold
pKd (LIN7A, O14910): below the threshold
pKd (APBA3_1, O96018): below the threshold
pKd (Inadl_1, Q8NI35): below the threshold
pKd (PDZRN3_1, Q9UPQ7): 4.33
pKd (GORASP1, Q9BQQ3): below the threshold
pKd (DLG2_2, Q15700): 3.9
pKd (GORASP2, Q9H8Y8): below the threshold
pKd (Inadl_9, Q8NI35): 3.57

ADRDHASDQL [CTBP1, Q13363]
pKd (MAGI2_5, Q86UL8): below the threshold
pKd (LNX2_2, Q8N448): below the threshold
pKd (HTRA3, P83110): below the threshold
pKd (GRIP1_2, Q9Y3R0): below the threshold
pKd (MPDZ_12, O75970): below the threshold
pKd (TJP2_1, Q9UDY2): below the threshold
pKd (MAGI2_6, Q86UL8): below the threshold
pKd (MAGI1_1, Q96QZ7): below the threshold
pKd (DVL3, Q92997): below the threshold
pKd (GRIP2_3, Q9C0E4): below the threshold
pKd (NHERF4_4, Q86UT5): below the threshold
pKd (DFNB31_1, Q9P202): below the threshold
pKd (GRIP2_6, Q9C0E4): below the threshold
pKd (LAP2, Q96RT1): below the threshold
pKd (Inadl_4, Q8NI35): below the threshold
pKd (CARD11, Q9BXL7): below the threshold
pKd (SCRIB_3, Q14160): below the threshold
pKd (PDZD7_3, Q9H5P4): below the threshold
pKd (GRIP2_7, Q9C0E4): below the threshold
pKd (LIN7A, O14910): below the threshold
pKd (APBA3_1, O96018): below the threshold
pKd (Inadl_1, Q8NI35): below the threshold
pKd (PDZRN3_1, Q9UPQ7): below the threshold
pKd (GORASP1, Q9BQQ3): below the threshold
pKd (DLG2_2, Q15700): below the threshold
pKd (GORASP2, Q9H8Y8): below the threshold
pKd (Inadl_9, Q8NI35): below the threshold
